Source: patent US6872808 (CORVAS INTERNATIONAL, dated 2005)

Legend:
human urokinase = human urokinase (human, UniProt P00749 156-431); test: cell-based or functional assay
human pancreatic trypsin = human pancreatic trypsin (human, UniProt P07477 24-247); test: cell-based or functional assay
human kallikrein = human kallikrein (human, UniProt P03952 20-638); test: cell-based or functional assay
[1] = target: recombinant tissue plasminogen activator (human, UniProt P00750 36-562); test: cell-based or functional assay
human alpha-thrombin = human alpha-thrombin (human, UniProt P00734 328-622); test: cell-based or functional assay
human factor Xa = human factor Xa (human, UniProt P00742 41-179; P00742 235-488); test: cell-based or functional assay
human Factor XIa = human Factor XIa (human, UniProt P03951 19-625); test: cell-based or functional assay
human Factor XIIa = target: T1, human Factor XIIa (human, UniProt P00748 20-615); test: cell-based or functional assay
T1 sequence: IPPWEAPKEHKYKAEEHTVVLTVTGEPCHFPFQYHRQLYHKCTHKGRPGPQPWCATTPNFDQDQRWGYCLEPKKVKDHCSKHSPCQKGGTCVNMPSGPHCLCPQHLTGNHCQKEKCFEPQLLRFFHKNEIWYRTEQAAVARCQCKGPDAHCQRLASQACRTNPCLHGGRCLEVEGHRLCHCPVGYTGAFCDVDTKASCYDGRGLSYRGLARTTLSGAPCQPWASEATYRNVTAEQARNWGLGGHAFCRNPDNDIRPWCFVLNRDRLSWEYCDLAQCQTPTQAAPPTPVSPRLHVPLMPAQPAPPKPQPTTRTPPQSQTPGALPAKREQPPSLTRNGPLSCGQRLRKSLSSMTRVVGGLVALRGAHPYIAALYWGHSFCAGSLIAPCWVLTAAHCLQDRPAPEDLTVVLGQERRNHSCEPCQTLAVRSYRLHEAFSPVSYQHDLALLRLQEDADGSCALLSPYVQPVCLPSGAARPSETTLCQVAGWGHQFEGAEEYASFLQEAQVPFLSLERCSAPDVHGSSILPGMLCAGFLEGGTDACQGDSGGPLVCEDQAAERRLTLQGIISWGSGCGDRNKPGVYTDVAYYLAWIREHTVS

[2] = target: bovine pancreatic chymotrypsin (bovine, UniProt P00766 1-245); test: cell-based or functional assay
human plasmin = human plasmin (human, UniProt P00747 97-810); test: cell-based or functional assay
[3] = target: human activated protein C (human, UniProt P04070 43-461); test: cell-based or functional assay
rFVIIa/rTF/PLV complex [4] = target: T2, rFVIIa/rTF/PLV complex (human, UniProt P08709 61-466; P13726 33-295); test: rFVIIa/rTF/PLV amidolytic assay (S-2288) plus 2.5 nM EGR-FXa; apparent Ki*
T2 construct: Complex formed in HBSA with CaCl2 on phosphatidyl choline/phosphatidyl serine vesicles; also called fVIIa/TF; FVIIa/TF

rFVIIa/rTF/PLV complex [5] = target: T2, rFVIIa/rTF/PLV complex; test: rFVIIa/rTF/PLV amidolytic assay (S-2288), no FXa addition; apparent Ki*

T2 sequence (P08709 61-466 limits assumed, chain 1 of 2): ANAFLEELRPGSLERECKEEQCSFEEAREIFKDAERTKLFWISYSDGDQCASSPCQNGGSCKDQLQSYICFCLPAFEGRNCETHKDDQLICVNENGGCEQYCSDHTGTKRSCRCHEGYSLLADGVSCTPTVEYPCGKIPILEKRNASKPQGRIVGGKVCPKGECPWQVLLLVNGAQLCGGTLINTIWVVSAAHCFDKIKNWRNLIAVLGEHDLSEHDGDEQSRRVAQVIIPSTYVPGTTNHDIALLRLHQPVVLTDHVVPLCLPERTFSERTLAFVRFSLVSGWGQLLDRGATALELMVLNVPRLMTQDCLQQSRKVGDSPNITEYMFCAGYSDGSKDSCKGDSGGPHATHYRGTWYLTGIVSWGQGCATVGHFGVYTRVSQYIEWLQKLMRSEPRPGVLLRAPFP
T2 sequence (P13726 33-295 limits assumed, chain 2 of 2): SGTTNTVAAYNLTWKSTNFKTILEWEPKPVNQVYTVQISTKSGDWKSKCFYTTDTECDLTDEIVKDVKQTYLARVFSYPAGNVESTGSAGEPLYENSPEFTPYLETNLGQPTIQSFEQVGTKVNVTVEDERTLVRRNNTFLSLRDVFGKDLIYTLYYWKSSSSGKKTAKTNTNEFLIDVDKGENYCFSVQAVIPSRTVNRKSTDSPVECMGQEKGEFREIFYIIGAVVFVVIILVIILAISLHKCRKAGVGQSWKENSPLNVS
Sequence of human kallikrein (P03952 20-638 limits assumed): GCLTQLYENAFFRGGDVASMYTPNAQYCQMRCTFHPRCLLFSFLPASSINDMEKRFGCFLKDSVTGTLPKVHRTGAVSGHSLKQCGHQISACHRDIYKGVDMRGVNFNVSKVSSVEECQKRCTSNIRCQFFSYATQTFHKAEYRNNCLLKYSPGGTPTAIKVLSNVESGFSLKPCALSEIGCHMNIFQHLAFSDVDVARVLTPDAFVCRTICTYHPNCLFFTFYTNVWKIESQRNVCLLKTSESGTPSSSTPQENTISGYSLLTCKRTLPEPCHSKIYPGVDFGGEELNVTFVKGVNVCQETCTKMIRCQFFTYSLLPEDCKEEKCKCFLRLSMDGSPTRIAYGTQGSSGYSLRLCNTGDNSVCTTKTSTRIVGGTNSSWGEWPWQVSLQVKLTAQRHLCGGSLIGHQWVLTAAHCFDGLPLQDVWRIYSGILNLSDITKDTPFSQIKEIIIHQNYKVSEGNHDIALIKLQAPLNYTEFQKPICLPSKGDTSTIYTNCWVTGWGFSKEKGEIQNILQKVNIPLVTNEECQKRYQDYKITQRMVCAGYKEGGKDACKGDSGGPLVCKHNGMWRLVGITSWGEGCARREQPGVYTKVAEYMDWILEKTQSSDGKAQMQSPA
Sequence of recombinant tissue plasminogen activator (P00750 36-562 limits assumed): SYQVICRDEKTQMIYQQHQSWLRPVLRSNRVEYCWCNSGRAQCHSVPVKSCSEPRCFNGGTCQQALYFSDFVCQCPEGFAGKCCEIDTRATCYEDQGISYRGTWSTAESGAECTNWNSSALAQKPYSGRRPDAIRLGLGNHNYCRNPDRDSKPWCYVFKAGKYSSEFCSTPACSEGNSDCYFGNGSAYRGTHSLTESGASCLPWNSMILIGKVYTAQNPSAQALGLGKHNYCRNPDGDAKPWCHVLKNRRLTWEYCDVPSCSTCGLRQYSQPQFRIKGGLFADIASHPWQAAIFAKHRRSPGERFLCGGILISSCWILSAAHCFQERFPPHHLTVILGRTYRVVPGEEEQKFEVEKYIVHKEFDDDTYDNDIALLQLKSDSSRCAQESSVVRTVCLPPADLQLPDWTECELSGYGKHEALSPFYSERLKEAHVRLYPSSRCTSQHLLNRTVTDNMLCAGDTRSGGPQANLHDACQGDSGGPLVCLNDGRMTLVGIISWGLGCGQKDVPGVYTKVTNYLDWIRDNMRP
Sequence of human factor Xa (P00742 41-179 limits assumed, chain 1 of 2): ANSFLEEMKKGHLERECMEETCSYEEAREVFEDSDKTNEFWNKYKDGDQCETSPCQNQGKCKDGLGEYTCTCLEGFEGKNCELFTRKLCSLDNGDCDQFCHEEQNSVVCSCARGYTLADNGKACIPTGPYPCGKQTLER
Sequence of human factor Xa (P00742 235-488 limits assumed, chain 2 of 2): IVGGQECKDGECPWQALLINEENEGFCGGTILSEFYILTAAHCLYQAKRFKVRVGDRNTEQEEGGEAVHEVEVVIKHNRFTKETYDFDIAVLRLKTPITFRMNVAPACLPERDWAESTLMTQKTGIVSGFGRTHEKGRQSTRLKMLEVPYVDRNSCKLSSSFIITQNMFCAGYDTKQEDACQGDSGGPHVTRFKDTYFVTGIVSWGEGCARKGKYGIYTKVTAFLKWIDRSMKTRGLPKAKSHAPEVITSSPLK
Sequence of human plasmin (P00747 97-810 limits assumed): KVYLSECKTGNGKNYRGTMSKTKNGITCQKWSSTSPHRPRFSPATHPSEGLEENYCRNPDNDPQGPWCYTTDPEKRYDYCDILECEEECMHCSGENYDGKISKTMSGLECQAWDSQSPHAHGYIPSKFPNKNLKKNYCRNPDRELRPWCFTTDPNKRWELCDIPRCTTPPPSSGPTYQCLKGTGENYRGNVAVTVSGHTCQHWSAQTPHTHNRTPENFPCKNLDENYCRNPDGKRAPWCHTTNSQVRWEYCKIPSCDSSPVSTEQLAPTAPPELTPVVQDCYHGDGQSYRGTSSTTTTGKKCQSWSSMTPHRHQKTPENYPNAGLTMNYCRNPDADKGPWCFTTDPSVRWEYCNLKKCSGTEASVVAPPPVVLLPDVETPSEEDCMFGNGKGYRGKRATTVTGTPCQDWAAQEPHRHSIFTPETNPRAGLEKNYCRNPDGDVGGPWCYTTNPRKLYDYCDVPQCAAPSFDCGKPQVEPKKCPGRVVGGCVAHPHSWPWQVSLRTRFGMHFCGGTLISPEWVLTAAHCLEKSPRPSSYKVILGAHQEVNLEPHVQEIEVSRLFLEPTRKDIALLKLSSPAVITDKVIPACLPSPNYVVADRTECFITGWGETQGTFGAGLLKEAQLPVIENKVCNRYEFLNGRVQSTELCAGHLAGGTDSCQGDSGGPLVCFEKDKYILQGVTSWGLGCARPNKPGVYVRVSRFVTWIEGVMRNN

B1: recombinant AceNAP4 (other)
chain: KPNNVMTNACGLNEYFAECGNMKECEHRCNEEENEERDEERITACLIRVCFRPGACVCKDGFYRNRTGSCVEEDDCEYENMEFITFAPEVPICGSNERYSDCGNDKQCERKCNEDDYEKGDEACRSHVCERPGACVCEDGFYRNKKGSCVESDDCEYDNMDFITFAPETSR
notes: Two NAP domains
Which “% Control Velocity (amidolytic activity; 75 nM NAP, 750 pM enzyme)” value (“% Control Velocity” below) (human urokinase) does the source give for B1 here?
Its value is 103%.

What about the “% Control Velocity” value (human pancreatic trypsin) of the same binder?
The value was 98%.

And the “% Control Velocity” value (human kallikrein)?
The value was 32%.

And the “% Control Velocity” value [1]?
Its value is 108%.

What about the “% Control Velocity” value (human alpha-thrombin) of the same binder?
The value was 93%.

What about the “% Control Velocity” value (human factor Xa) of the same binder?
Its value is 76%.

What about the “% Control Velocity” value (human Factor XIa) of the same binder?
The value was 96%.

And the “% Control Velocity” value (human Factor XIIa)?
The value was 102%.

What about the “% Control Velocity” value [2] of the same binder?
Its value is 96%.

What about the “% Control Velocity” value (human plasmin) of the same binder?
The value was 100%.

And the “% Control Velocity” value [3]?
Its value is 103%.

What about the Ki (rFVIIa/rTF/PLV complex [4]) of the same binder?
Its Ki is 0.378 nM.

And the Ki (rFVIIa/rTF/PLV complex [5])?
The Ki was 59.2 nM.
